In test [1] the target is GST-ZZUD (ZU5-ZU5-UPA-DD spectrin-binding domain of erythrocyte ankyrin, wild type) (human) (UniProt P16157). Put plainly: pull-down; sedimentation assay: GST-ZZUD or GST-ZZUDL1340P adsorbed on Glutathione Sepharose 4B; His(6)GFP–AnkBD 0–2 µM; 50 mM Tris–HCl, 150 mM NaCl, 2 mM DTT, pH 7.5; 30 min, room temperature; eluted with 75 mM GSH, bound GFP read by fluorescence; bare resin subtracted; one site-specific binding fit.

For test [2], the target named is His(6)GFP–AnkBD (ankyrin-binding domain of erythrocyte β-spectrin, repeats 14–15) (human) (UniProt P11277). Nature of the test: BLI; Octet K2; His(6)GFP–AnkBD loaded on Ni2+-NTA biosensor tips; GST-ZZUD or GST-ZZUDL1340P 0–2.5 µM in solution; 30 °C; 50 mM Tris–HCl, 150 mM NaCl, 2 mM DTT, pH 7.5; association 300 s, dissociation 300 s; curves compared by amplitude.
UniProt P11277, sequence (P11277 whole entry, the tested form may be a part): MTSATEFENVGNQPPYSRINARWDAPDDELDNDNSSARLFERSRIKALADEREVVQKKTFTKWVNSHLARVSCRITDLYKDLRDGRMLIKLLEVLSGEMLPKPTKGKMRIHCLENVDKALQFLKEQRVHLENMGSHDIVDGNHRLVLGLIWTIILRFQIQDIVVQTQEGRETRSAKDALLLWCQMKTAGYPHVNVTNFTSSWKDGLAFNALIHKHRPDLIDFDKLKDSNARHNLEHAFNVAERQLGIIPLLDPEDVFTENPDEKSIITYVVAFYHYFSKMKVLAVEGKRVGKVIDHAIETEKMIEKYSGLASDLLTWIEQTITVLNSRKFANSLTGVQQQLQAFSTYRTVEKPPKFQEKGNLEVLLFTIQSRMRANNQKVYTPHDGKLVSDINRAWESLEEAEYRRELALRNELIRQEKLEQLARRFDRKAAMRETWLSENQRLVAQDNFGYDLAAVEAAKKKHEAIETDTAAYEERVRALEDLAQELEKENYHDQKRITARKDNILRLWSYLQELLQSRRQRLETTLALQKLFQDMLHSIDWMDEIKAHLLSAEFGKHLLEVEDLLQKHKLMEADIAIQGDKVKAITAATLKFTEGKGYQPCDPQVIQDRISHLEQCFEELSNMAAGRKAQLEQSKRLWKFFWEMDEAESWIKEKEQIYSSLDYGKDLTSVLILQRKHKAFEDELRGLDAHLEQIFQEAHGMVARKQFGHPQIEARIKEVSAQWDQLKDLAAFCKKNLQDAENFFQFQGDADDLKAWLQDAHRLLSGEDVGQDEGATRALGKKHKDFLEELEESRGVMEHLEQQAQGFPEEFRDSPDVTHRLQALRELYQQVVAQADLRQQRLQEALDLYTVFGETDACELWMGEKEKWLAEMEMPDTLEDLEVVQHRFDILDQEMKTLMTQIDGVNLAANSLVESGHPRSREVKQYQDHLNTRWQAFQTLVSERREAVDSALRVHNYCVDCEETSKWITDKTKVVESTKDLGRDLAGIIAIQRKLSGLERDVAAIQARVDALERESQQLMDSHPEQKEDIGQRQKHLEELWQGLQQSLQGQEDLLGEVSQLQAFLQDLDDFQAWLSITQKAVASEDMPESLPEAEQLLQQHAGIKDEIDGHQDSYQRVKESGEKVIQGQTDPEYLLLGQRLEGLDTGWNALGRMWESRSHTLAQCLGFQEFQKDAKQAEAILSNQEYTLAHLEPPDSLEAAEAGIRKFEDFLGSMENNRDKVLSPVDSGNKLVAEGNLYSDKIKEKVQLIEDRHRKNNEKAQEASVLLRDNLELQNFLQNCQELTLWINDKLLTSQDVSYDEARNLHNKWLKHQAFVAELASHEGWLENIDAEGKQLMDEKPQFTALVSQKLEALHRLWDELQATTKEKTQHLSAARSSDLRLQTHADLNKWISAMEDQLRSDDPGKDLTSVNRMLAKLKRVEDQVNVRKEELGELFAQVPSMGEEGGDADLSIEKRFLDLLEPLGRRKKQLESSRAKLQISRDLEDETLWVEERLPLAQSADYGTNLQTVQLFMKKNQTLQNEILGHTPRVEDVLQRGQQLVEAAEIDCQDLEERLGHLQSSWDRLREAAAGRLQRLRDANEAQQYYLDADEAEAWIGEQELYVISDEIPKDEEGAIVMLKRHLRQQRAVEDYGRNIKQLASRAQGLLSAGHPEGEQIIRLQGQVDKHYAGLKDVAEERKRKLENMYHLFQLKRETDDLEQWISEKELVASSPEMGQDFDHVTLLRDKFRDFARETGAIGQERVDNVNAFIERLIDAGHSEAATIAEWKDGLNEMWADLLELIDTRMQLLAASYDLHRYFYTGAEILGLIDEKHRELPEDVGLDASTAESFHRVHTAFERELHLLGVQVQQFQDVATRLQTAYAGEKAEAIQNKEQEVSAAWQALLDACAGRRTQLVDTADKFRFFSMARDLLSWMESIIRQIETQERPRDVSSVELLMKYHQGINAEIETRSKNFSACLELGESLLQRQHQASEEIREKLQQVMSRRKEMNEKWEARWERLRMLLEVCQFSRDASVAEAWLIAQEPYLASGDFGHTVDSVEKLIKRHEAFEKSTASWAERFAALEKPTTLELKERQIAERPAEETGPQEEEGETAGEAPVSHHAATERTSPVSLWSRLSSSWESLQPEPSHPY

As a reminder, the Kd is the equilibrium constant for the complex coming apart. The molecule “His(6)GFP–AnkBD (ankyrin-binding domain of erythrocyte β-spectrin, repeats 14–15) (from UniProt P11277 1-2137) (domain or fragment)” returned a Kd in test [1] of 1040 nM.

B1: GST-ZZUDL1340P (ZZUD domain of erythrocyte ankyrin with the spherocytosis-related L1340P substitution) (domain or fragment)
chain: TGFLVSFMVDARGGSMRGSRHNGLRVVIPPRTCAAPTRITCRLVKPQKLSTPPPLAEEEGLASRIIALGPTGAQFLSPVIVEIPHFASHGRGDRELVVLRSENGSVWKEHRSRYGESYLDQILNGMDEELGSLEELEKKRVCRIITTDFPLYFVIMSRLCQDYDTIGPEGGSLKSKLVPLVQATFPENAVTKRVKLALQAQPVPDELVTKLLGNQATFSPIVTVEPRRRKFHRPIGLRIPLPPSWTDNPRDSGEGDTTSLRLLCSVIGGTDQAQWEDITGTTKLVYANECANFTTNVSARFWLSDCPRTAEAVNFATLLYKELTAVPYMAKFVIFAKMNDPREGRLRCYCMTDDKVDKTLEQHENFVEVARSRDIEVLEGMSLFAELSGNLVPVKKAAQQRSFHFQSFRENRLAMPVKVRDSSREPGGSPSFLRKAMKYEDTQHILCHLNITMPPCAKGSGAEDRRRTPTPLALRYSILSESTPGSLSGTEQAEMKMAVISEHLGLSWAELARELQFSVEDINRIRVENPNSLLEQSVALLNLWVIREGQNANMENLYTALQSIDRGEIVNMLEGSGRQSRN
Consider B1, for which the fold decrease in the binding response compared to the WT in test [2] is 3 fold.
